# B1: Rhavi-IpaB (rhizavidin fused to Shigella IpaB) (other)
# chain: FDASNFKDFSSIASASSSWQNQSGSTMIIQVDSFGNVSGQYVNRAQGTGCQNSPYPLTGRVNGTFIAFSVGWNNSTENCNSATGWTGYAQVNGNNTEIVTSWNLAYEGGSGPAIEQGQDTFQYVPTTENKSLLKDGGGSSHNVSTTTTGFPLAKILASTELGDNTIQAANDAANKLFSLTIADLTANQNINTTNAHSTSNILIPELKAPKSLNASSQLTLLIGNLIQILGEKSLTALTNKITAWKSQQQARQQKNLEFSDKINTLLSETEGLTRDYEKQINKLKNADSKIKDLENKINQIQTRLSELDPESPEKKKLSREEIQLTIKKDAAVKDRTLIEQKTLSIHSKLTDKSMQLEKEIDSFSAFSNTASAEQLSTQQKSLTGLASVTQLMATFIQLVGKNNEESLKNDLALFQSLQESRKTEMERKSDEYAAEVRKAEELNRVMGCVGKILGALLTIVSVVAAAFSGGASLALAAVGLALMVTDAIVQAATGNSFMEQALNPIMKAVIEPLIKLLSDAFTKMLEGLGVDSKKAKMIGSILGAIAGALVLVAAVVLVATVGKQAAAKLAENIGKIIGKTLTDLIPKFLKNFSSQLDDLITNAVARLNKFLGAAGDEVISKQIISTHLNQAVLLGESVNSATQAGGSVASAVFQNSASTNLADLTLSKYQVEQLSKYISEAIEKFGQLQEVIADLLASMSNSQANRTDVAKAILQQTTA
# notes: also called IpaB fused to rhizavidin; Rhavi-IpaB carrier protein
# Biological target: T1, IpgC (UniProt P0A2U4 1-155, limits assumed)
# T1 construct: Co-expressed with Rhavi-IpaB in E. coli from pETDuet; also called chaperone IpgC
# Test: co-expression in E. coli; chaperone retained with the His-tagged fusion on Ni-NTA until the detergent wash
# Procedure: DNA fragments encoding of His-SseB and SseA or His-IpaB and IpgC were synthesized and cloned into a pETDuet vector containing Rhavi by restriction enzyme digestion and ligation. Sequence-confirmed plasmids were transformed E. coli T7 shuffle express cells and transformants containing the relevant cloned proteins were grown to OD600=1 at 25° C., and protein expression was induced with 0.2 mM IPTG at 16° C. overnight. Cells were spun down and pellets were resuspended in lysis buffer (20 mM Tris-HCl, 500 mM NaCl, pH8.0) and then lysed by sonication. Supernatant was loaded over a Ni-NTA column and SseA or IpgC was washed off column with 0.05% LDAO in lysis buffer; proteins Rhavi-SseB and Rhavi-IpaB were eluted in imidazole buffer. Protein-containing elutions were combined, purified over a gel-filtration column for dimer fractions.
# T1 sequence (P0A2U4 whole entry): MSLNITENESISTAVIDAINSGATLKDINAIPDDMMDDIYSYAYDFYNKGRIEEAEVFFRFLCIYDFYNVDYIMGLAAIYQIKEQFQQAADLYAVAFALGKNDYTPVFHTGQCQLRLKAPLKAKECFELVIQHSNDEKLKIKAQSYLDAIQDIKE
binder,measurement,value
B1,binding result,binds
